Laboratory results from patent US20220324959A1 (Janssen / Centocor, published 2022).

B1: TNV148 (antibody, human IgG1, kappa, V domains shown)
VH: QVQLVESGGGVVQPGRSLRLSCAASGFIFSSYAMHWVRQAPGNGLEWVAFMSYDGSNKKYADSVKGRFTISRDNPKNTLYLQMNSLRAEDTAVYYCARDRGIAAGGNYYYYGMDVWGQGTTVTVSS
VL: EIVLTQSPATLSLSPGERATLSCRASQSVYSYLAWYQQKPGQAPRLLIYDASNRATGIPARFSGSGSGTDFTLTISSLEPEDFAVYYCQQRSNWPPFTFGPGTKVDIKR
notes: Hybridoma-derived fully human IgG1 kappa, tested as hybridoma supernatant; also called GenTNV148.26.12; C420A
B2: TNV86 (antibody, human IgG1, kappa, V domains shown)
VH: QVQLVESGGGVVQPGRSLRLSCAASGFIFSSYAMHWVRQAPGNGLEWVAFMSYDGSNKKYADSVKGRFTISRDNPKNTLYLQMNSLRAEDTAVYYCARDRGIAAGGNYYYYGMDVWGQGTTVTVSS
VL: EIVLTQSPATLSLSPGERATLSCRASQSVYSYLAWYQQKPGQAPRLLIYDASNRATGIPARFSGSGSGTDFTLTISSLEPEDFAVYYCQQRSNWPPFTFGPGTKVDIKR
notes: Hybridoma-derived fully human IgG1 kappa, tested as hybridoma supernatant; Identity is stated for the variable regions only; also called GenTNV86.14.34; C417A

Key:
recombinant human TNFα [1] = molecular target: T1, recombinant human TNFα (human, UniProt P01375 77-233, 125I label in the receptor blocking assay); experiment: cell-based or functional assay
recombinant human TNFα [2] = molecular target: T1, recombinant human TNFα; experiment: competition radioligand assay: mAb in hybridoma supernatant preincubated with 5 ng/ml 125I-TNFα, then binding of 125I-TNFα to plate-coated p55-sf2 (TNF receptor/IgG fusion) counted as cpm bound
Method: Varying amounts of hybridoma cell supernatants containing known amounts of TNV mAb were preincubated with a fixed concentration (5 ng/ml) of ¹²⁵I-labeled TNFα. […] The amount of TNFα that bound to the p55 receptor in the presence of the mAbs was determined after washing away the unbound material and counting using a gamma counter. Although eight TNV mAb samples were tested in these experiments, for simplicity three of the mAbs that were shown by DNA sequence analyses to be identical to one of the other TNV mAbs (see Section 5.2.2) are not shown here. Each sample was tested in duplicate. The results shown are representative of two independent experiments.
(§1) 50:1 of p55-sf2 at 0.5:g/ml in PBS was added to Optiplates to coat the wells during a one-hour incubation at 37° C. Serial dilutions of the eight TNV cell supernatants were prepared in 96-well round-bottom plates using PBS/0.1% BSA as diluent. […] The mixture was preincubated for one hour at RT. The coated Optiplates were washed to remove unbound p55-sf2 and 50:1 of the ¹²⁵I-TNFα/cell supernatant mixture was transferred to the Optiplates. After 2 hrs at RT, Optiplates were washed three times with PBS-Tween. […] of Microscint-20 was added and the cpm bound determined using the TopCount gamma counter.

recombinant human TNFα [3] = molecular target: T1, recombinant human TNFα; experiment: inhibition of 125I-TNFα binding to plate-coated p55-sf2, hybridoma supernatant
Method: as §1
A simple binding assay was done to determine whether the eight TNV mAbs contained in hybridoma cell supernatant were capable of blocking TNFα binding to receptor. The concentrations of the TNV mAbs in their respective cell supernatants were first determined by standard ELISA analysis for human IgG.

Binder	neutralizing TNFα bioactivity (recombinant human TNFα [1])	IC50 (read off the curve) (recombinant human TNFα [2])	fold better at blocking TNF binding (against TNV118 and TNV14) (recombinant human TNFα [3])
B1	4 fold	~4 ng/mL	~4 fold
B2	–	–	~4 fold
